Measurements from US20170081378A1 (INDIANA UNIVERSITY RESEARCH AND TECHNOLOGY, published 2017).
Where no end group is shown, it is not given here.

T1: fLL-37 (LL-37 with 5' carboxyfluorescein coupled to the N-terminus) (human, 5' carboxyfluorescein coupled to the N-terminus)
T1 construct: Custom synthesized labelled peptide (AnaSpec), used at 0.1 uM in the fluorescence polarization assay; also called fluorescein-labeled LL-37
T1 peptide: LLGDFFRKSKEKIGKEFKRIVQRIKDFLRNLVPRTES

B1: LL-29 (peptide)
peptide: LLGDFFRKSKEKIGKEFKRIVQRIKDFLR
notes: N-terminal 29 residues of LL-37 (lacks the C-terminal 8 residues)
B2: rhodamine-labeled LL-37 (rLL-37) (peptide)
peptide: LLGDFFRKSKEKIGKEFKRIVQRIKDFLRNLVPRTES
modifications: also: rhodamine label, position not given here
B3: Peptide A (peptide)
peptide: LLGDFFRKSKEKIGKEFKRIVQRIKDFLRKLVPQPEQ
notes: LL-37 with the C-terminal four residues replaced with those from mCRAMP
B4: LL-37 (peptide)
peptide: LLGDFFRKSKEKIGKEFKRIVQRIKDFLRNLVPRTES
notes: Unlabelled synthetic 37-residue peptide; also called WT LL-37; native LL-37
B5: LL8-37 (peptide)
peptide: SKEKIGKEFKRIVQRIKDFLRNLVPRTES
B6: mCRAMP (murine ortholog of LL-37) (peptide)
peptide: GLLRKGGEKIGEKLKKIGQKIKNFFQKLVPQPEQ
notes: also called mouse peptide
B7: LL9-29 (peptide)
peptide: SKEKIGKEFKRIVQRIKDFLR

How the values were obtained:
fLL-37 (LL-37 with 5' …) [1] = target: T1, fLL-37 (LL-37 with 5' …); assay: fluorescence polarization, fLL-37 0.1 uM, peptide titrated 1-1000 nM, phosphate buffer pH 7.0
fLL-37 (LL-37 with 5' …) [2] = target: T1, fLL-37 (LL-37 with 5' …); assay: FRET between fLL-37 and rLL-37 (1:1) in endosomes of BEAS-2B cells, confocal microscopy
Procedure: FIG. 3. Oligomerization of LL-37 depends upon pH. A) LL-37 forms particles that are micrometers in hydrodynamic radii at neutral pH and the particles dissociate when the pH is decreased. All assays were performed with LL-37 at a concentration of 1 ᵢlM in phosphate buffer. […] C) LL-37 particles will dissociate in the presence of salt. The hydrodynamic radius of ˜1 μM LL-37 was determined in a pH 7.4 phosphate buffer adjusted to contain the concentration of NaCl indicated. D) fLL37 and rLL-37 colocalize in endosomes of BEAS-2B cells. fLL-37, rLL-37, and poly(I:C) were added to BEAS-2B cells that were either mock-treated or treated with ammonium chloride and imaged 60 min later by excitation at 488 nm or at 561 nm. The micrograph images were then merged to show the co-localization of the two fluorescent peptides. E) Co-localization of fLL-37 and rLL-37 in BEAS-2B cells was quantified in the absence or presence of endosomal acidification inhibitors. To detect both peptides, the cells were excited with 488 and 561 nm laser. To determine FRET between the two peptides, the cells were excited at only 488 nm laser, which activates fluorescence of fLL-37 and the emissions for both fluorescein and rhodamine were determined. The data shown were quantified from 20 independent cells from three independently prepared samples. The p values were calculated by using the Student t-test. […]

fLL-37 (LL-37 with 5' …) [3] = target: T1, fLL-37 (LL-37 with 5' …); assay: fluorescence polarization (FIG. 11)
[4] = target: fLL-37 (LL-37 with 5' carboxyfluorescein coupled to the N-terminus) (human); assay: fluorescence polarization, fLL-37 0.1 uM, peptide titrated 1-1000 nM, phosphate buffer pH 7.0

Row | Binder | fold change in the fluorescence anisotropy values of f-LL-37 between 1.0 nM and 1000 nM of added peptide (fLL-37 (LL-37 with 5' …) [1]) [fold] | further results
1 | B1 | 6.2 | 
2 | B2 |  | binding result (fLL-37 (LL-37 with 5' …) [2]): binds
3 | B3 | 5 | 
4 | B4 | 6 | 
5 | B5 |  | binding result (fLL-37 (LL-37 with 5' …) [3]): binds
6 | B6 | 2.6 | 
7 | B7 |  | fold change in the fluorescence anisotropy values of f-LL-37 between 1.0 nM and 1000 nM of added peptide [4]: 2.6 fold
